This note sets out measurements from publication PMC9232636, “Insights into the mechanism of action of the arbitrium communication system in SPbeta phages” (Nature Communications, 2022).

Like-named read-outs stand apart in the source and are kept apart here. Where only a bound is given, the exact number is not on record here.

For data set [1], the target named is AimR from Katmira phage (AimR^Kat) (Katmira phage (resident phage of Bacillus subtilis subsp. KATMIRA1933)). Put plainly: thermal shift assay (ThermoFluor); 20 μM protein, 5× Sypro Orange, 0.5 μM peptide as printed; 20 mM Tris pH 8, 250 mM NaCl; 25 to 85 °C.
The target is the same in data set [2]. The experiment in a line: ITC; Nano ITC Low Volume; protein 10 μM, peptide 50 μM; 25 mM Tris-HCl pH 8, 250 mM NaCl; 25 °C; biphasic thermograms fitted to a two-binding site model, one site per monomer of the AimR dimer. (Isothermal titration calorimetry measures the heat released or taken up as one component is titrated into another.)
Data set [3] deals with AimR^Kat-N273A (Katmira phage (resident phage of Bacillus subtilis subsp. KATMIRA1933)). Described as above.
Data set [4] concerns the target AimR from Katmira phage (AimR^Kat) (Katmira phage (resident phage of Bacillus subtilis subsp. KATMIRA1933)). The experiment in a line: SEC-MALS; apo AimR^Kat, 50 μl at 5 mg/ml on KW-803 (Shodex); 25 mM Tris pH 8, 250 mM NaCl.
The target is the same in data set [5]. Put plainly: SEC-MALS; AimR^Kat with 1 mM AimP^Kat peptide in the injected sample and 1 μM peptide in the running buffer; 5 mg/ml, KW-803 (Shodex); 25 mM Tris pH 8, 250 mM NaCl. (SEC sorts molecules by how far they enter the pores of the column.)
The target of data set [6] is AimRKat (Bacillus phage Katmira (prophage of Bacillus subtilis KATMIRA1933)) (UniProt A0A7G5CHT1). Put plainly: BLI. The following applies: BLI: PBS (0.01% Tween, 0.1% BSA for hydration, baseline and dissociation), AimR 0.015-2.5 uM, temperature not stated; EMSA: 50 mM Tris pH 8, 250 mM NaCl, room …. On the technique in general: A gel shift assay detects complexes by their altered migration in electrophoresis.

Data set [7] concerns the target aimX-box^SPβ. The experiment in a line: Biolayer interferometry, AimR binding to aimX operator. Also noted: species or system phage SPβ. The following applies: BLI. As for the experimental part:
(§1) The Binding affinity (KD), association (kon) and dissociation (koff) rate constants between AimRs and DNA were measured by biolayer interferometry (BLI) using the BLITz system (FortéBio). Biotinilated DNA probes (IDT) (Supplementary Table 3) were immobilised in Streptavidin biosensors (FortéBio) at 50 μg ml^−1. Biosensor hydration, baselines and dissociation analysis were carried out in phosphate buffer (PBS) supplemented with 0.01% tween and 0.1% BSA. Proteins were diluted in PBS. At least four different dilutions of AimR were used in a range between 0.015 and 2.5 μM. A blank using a chip without bounded DNA was used to subtract unspecific binding. Kinetic value calculations and data analysis were performed using BLItz Pro 1.2 software employing a 1:1 model to fit the data.

Data set [8] deals with aimX-box^Kat. The data set is described as above. More on the design: species or system Katmira phage. The following applies: BLI, 1:1 model. As for the experimental part:
as §1

Data set [9] addresses aimX-box^Phi. Described as above. More on the design: species or system phage phi3T; key to kon / koff: NBD: not binding detected in the experimental conditions used. KD > 1 × 10^−6 M. The following applies: BLI, 1:1 model. The method, then:
as §1

For data set [10], the system named is AimR^SPβ. The experiment in a line: Thermal shift assay of AimR^SPβ with and without C-terminal His-tag. The class given is physicochemical, phage SPβ. As for the experimental part: The thermal shift assay was conducted in a 7500 Fast Real time PCR System (Applied Biosystems) as previously described. Briefly, samples of 20 μl buffer (20 mM Tris pH 8 and 250 mM NaCl) containing 5× Sypro Orange (Sigma-Aldrich) and 20 μM of protein were loaded in 96-well PCR plates. To calculate the Tm in the presence of the peptide, 0.5 μM of GMPRGA or GIVRGA peptide was added to the mixture. Samples were heated from 25 to 85 °C in steps of one degree. Fluorescent intensity was plotted versus temperature and integrated with GraphPad Prism software using a Boltzmann model to calculate melting temperatures.

The target of data set [11] is T1, AimRSPb-I (untagged) (Bacillus phage SPbeta, UniProt O64094 1-386).
T1 sequence: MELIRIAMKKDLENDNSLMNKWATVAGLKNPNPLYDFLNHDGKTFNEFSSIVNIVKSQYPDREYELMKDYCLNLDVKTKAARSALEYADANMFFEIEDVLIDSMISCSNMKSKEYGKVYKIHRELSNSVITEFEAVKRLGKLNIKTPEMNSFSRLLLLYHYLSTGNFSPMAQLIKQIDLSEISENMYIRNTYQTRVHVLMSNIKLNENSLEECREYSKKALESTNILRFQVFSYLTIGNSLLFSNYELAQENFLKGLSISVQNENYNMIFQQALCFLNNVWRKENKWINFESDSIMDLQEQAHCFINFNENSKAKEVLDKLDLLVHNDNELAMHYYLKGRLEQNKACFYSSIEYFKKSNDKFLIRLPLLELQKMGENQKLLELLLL
Put plainly: BLI; BLI: PBS (0.01% Tween, 0.1% BSA for hydration, baseline and dissociation), AimR 0.015-2.5 uM, temperature not stated; EMSA: 50 mM Tris pH 8, 250 mM NaCl, room temperature 10 min, 0.5 uM peptide, gel at 4 C. The following applies: protein: recombinant; tags: N-terminal His tag removed; chain copies: 2.

Data set [12] deals with T2, AimRSPb-II (C-terminal His tag) (Bacillus phage SPbeta (B. subtilis 168 …, UniProt O64094 1-386)).
T2 sequence: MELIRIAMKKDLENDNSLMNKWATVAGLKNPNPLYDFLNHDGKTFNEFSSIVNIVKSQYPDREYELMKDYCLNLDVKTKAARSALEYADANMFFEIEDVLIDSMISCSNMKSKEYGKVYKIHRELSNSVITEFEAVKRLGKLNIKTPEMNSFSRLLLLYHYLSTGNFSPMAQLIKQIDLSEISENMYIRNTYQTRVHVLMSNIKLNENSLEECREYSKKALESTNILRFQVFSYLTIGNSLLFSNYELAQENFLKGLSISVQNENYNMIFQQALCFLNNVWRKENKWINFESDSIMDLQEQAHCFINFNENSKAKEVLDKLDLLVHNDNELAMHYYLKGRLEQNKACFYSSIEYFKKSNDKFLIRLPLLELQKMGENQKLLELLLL
The description is as above. The following applies: protein: recombinant; chain copies: 2.

For data set [13], the target named is T3, AimR from B. subtilis phage SPβ (AimR^SPβ) (Bacillus subtilis phage SPβ) (UniProt O64094).
T3 sequence: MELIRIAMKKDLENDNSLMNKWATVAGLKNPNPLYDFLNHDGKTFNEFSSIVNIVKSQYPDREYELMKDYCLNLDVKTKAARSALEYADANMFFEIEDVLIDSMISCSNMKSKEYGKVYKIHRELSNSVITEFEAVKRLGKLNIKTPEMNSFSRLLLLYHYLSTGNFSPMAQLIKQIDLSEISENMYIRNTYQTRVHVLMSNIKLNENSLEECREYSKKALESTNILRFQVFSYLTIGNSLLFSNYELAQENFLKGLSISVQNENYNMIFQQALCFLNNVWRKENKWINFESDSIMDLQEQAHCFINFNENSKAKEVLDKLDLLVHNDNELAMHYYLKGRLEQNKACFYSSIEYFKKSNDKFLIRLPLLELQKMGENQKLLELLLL

Data set [14] addresses AimR^Kat-N273A (Katmira phage (resident phage of Bacillus subtilis subsp. KATMIRA1933)). The experiment in a line: ITC; Nano ITC Low Volume; protein 10 μM, peptide 50 μM; 25 mM Tris-HCl pH 8, 250 mM NaCl; 25 °C; biphasic thermograms fitted to a two-binding site model, one site per monomer of the AimR dimer. The source holds these as a separate data set.
The target of data set [15] is T1, AimRSPb-I (untagged). The experiment in a line: EMSA; BLI: PBS (0.01% Tween, 0.1% BSA for hydration, baseline and dissociation), AimR 0.015-2.5 uM, temperature not stated; EMSA: 50 mM Tris pH 8, 250 mM NaCl, room temperature 10 min, 0.5 uM peptide, gel at 4 C. The following applies: protein: recombinant; tags: N-terminal His tag removed; chain copies: 2.

“AimP^Kat, active (mature) Katmira AimP peptide GIVRGA”: in data set [1], the increment of the melting temperature (Tm) was 20 °C. Further, the KD1 (monomer 1, two-binding site model) came out at 4.1 nM in [2] and 194 nM in data set [3]. The KD2 (monomer 2, two-binding site model) in data set [2] came out at 5.7 nM; in data set [3], 356 nM.

The term stoichiometry N denotes the number of molecules, sites or subunits per partner or assembly. As for “AimR from Katmira phage (AimR^Kat) (receptor)”, the stoichiometry N in data set [4] and in [5] was 2 each time.

The term Kd denotes the constant that tells how readily two partners part at equilibrium. For “GGGAAAGTTCCAGAAATTCAAAAATCAAAAAATAAGAACATGGGG (double strand) [aimX-boxPhi BLI probe (DNA_Phi3T_b)]”, the Kd in data set [6] was greater than 1 µM.

“GTTGATCACTTAAATATTAAGTTTTTATAACATCTAGTGATGGCC (double strand) [aimX-boxKat BLI probe (DNA_Kat_b)]”: in data set [6], the Kd is 0.0231 µM.

The molecule “GTTGATCACTTAAATATTAGGTTTTAATAACATCTAGTGATGGCC (double strand) [aimX-boxSPb BLI probe (DNA_SPb_b)]” showed a Kd in data set [6] of 0.0214 µM.

B1: AimR^SPβ-I: AimR^SPβ receptor without tags (protein)
chain: MELIRIAMKKDLENDNSLMNKWATVAGLKNPNPLYDFLNHDGKTFNEFSSIVNIVKSQYPDREYELMKDYCLNLDVKTKAARSALEYADANMFFEIEDVLIDSMISCSNMKSKEYGKVYKIHRELSNSVITEFEAVKRLGKLNIKTPEMNSFSRLLLLYHYLSTGNFSPMAQLIKQIDLSEISENMYIRNTYQTRVHVLMSNIKLNENSLEECREYSKKALESTNILRFQVFSYLTIGNSLLFSNYELAQENFLKGLSISVQNENYNMIFQQALCFLNNVWRKENKWINFESDSIMDLQEQAHCFINFNENSKAKEVLDKLDLLVHNDNELAMHYYLKGRLEQNKACFYSSIEYFKKSNDKFLIRLPLLELQKMGENQKLLELLLL
What is called koff is the rate constant with which the complex falls apart. For orientation: kon means the rate constant with which the complex forms. For the molecule B1, the Kd in data set [7] (BLITz, streptavidin biosensor with biotinylated DNA, PBS, 1:1 model, mean of five measurements, read-out: KD) was 0.0193 µM; in data set [7] (peer review file, stated jointly for aimX-box^SPβ and aimX-box^Kat, read-out: affinity (KD)) it was 0.019 µM; in data set [8] (BLITz, streptavidin biosensor with biotinylated DNA, PBS, mean of five measurements), 0.0196 µM; in data set [9] (BLITz, PBS, AimR 0.015-2.5 μM) it was greater than 1 µM. In addition, the off-rate constant (koff) is 0.0726 ± 0.00229 s⁻¹ in data set [7] (PBS + 0.01% tween and 0.1% BSA, 1:1 model); 0.078 ± 0.0025 s⁻¹ in data set [8] (PBS + 0.01% tween and 0.1% BSA); “NBD^d” in data set [9] (PBS + 0.01% tween and 0.1% BSA). For the same molecule, the kon in [7] (PBS, 1:1 model) was 3.75e+06 ± 324000 M⁻¹ s⁻¹; in [8] (PBS), 3.98e+06 ± 427000 M⁻¹ s⁻¹; in [9] (PBS), “NBD^d”. In addition, the Tm in [10] (20 mM Tris pH 8, 250 mM NaCl, 20 μM protein, no peptide) stood at 53.6 °C; in data set [10] (Supplementary Fig. 5b, in °C (unit assumed)), 53.6 ± 0.7.

B2: aimX-boxSPb BLI probe (DNA_SPb_b) (dsDNA)
DNA 1: GTTGATCACTTAAATATTAGGTTTTAATAACATCTAGTGATGGCC
DNA 2: GGCCATCACTAGATGTTATTAAAACCTAATATTTAAGTGATCAAC
For B2, the Kd in data set [11] was 0.0193 µM; in [12], 0.116 µM.

B3: aimX-boxKat BLI probe (DNA_Kat_b) (dsDNA)
DNA 1: GTTGATCACTTAAATATTAAGTTTTTATAACATCTAGTGATGGCC
DNA 2: GGCCATCACTAGATGTTATAAAAACTTAATATTTAAGTGATCAAC
For B3, the figures for the Kd in [11] and in data set [12] were 0.0196 µM and 0.116 µM, respectively.

Molecule GMPRGA [AimP^SPβ, the SPβ AimP peptide GMPRGA] gave a phage titre (PFU/ml) after mitomycin C induction of the SPβ ΔaimR prophage complemented with AimR^SPβ, 5 μM peptide added (times (reduction of the titre)) in [13] of 10. Also, in data set [14], the KD1 (monomer 1, two-binding site model) was 1.3 µM and the KD2 (monomer 2, two-binding site model) worked out at 1.6 µM.

B4: aimX-boxPhi EMSA probe (DNA_Phi3T) (dsDNA)
DNA 1: GTTGATGTTCCAGAAATTCAAAAATCAAAAAATAAGAACATGGCC
DNA 2: GGCCATGTTCTTATTTTTTGATTTTTGAATTTCTGGAACATCAAC
Regarding B4, in data set [15], the binding result is on record as “no binding”.
